Our source for the ELISA_avg values is US20250026849A1 (ARCELLX, published 2025).

To fix the notation:
B1: D domain SEQ ID NO: 730 (designed binder)
chain: MGSWVEFWHRLDAIKARLNALGGSEAELAAFEKEIAAFESELQAYKGKGNPEVEDLRWYAADFRLILQAYRHN
B2: D domain SEQ ID NO: 769 (designed binder)
chain: MGSWFEFVDRLEAIEMRLFALGGSEAELAAFEKEIAAFESELQAYKGKGNPEVELLRWRAAMIRYDLQAYRHN
B3: D domain SEQ ID NO: 710 (designed binder)
chain: MGSWGEFWARLEAIWIRLDALGGSEAELAAFEKEIAAFESELQAYKGKGNPEVEWLREEAADIRRSLQAYRHN
B4: D domain SEQ ID NO: 744 (designed binder)
chain: MGSWEEFEDRLWAIEDRLWALGGSEAELAAFEKEIAAFESELQAYKGKGNPEVEILRYDAAYIREILQAYRHN
B5: D domain SEQ ID NO: 763 (designed binder)
chain: MGSWWEFEDRLMAIYDRLYALGGSEAELAAFEKEIAAFESELQAYKGKGNPEVEYLRAEAALIRETLQAYRHN
B6: D domain SEQ ID NO: 764 (designed binder)
chain: MGSWFEFEDRLYAIEDRLYALGGSEAELAAFEKEIAAFESELQAYKGKGNPEVEYLRWGAATIRDELQAYRHN
B7: D domain SEQ ID NO: 748 (designed binder)
chain: MGSWWEFEHRLFAIEDRLWALGGSEAELAAFEKEIAAFESELQAYKGKGNPEVEFLRDYAAEIRDYLQAYRHN
B8: D domain SEQ ID NO: 752 (designed binder)
chain: MGSWWEFHDRLEAIEDRLWALGGSEAELAAFEKEIAAFESELQAYKGKGNPEVEYLRIEAADIRRQLQAYRHN
B9: D domain SEQ ID NO: 761 (designed binder)
chain: MGSWYEFEERLEAIEDRLWALGGSEAELAAFEKEIAAFESELQAYKGKGNPEVEWLREQAAFIRTMLQAYRHN
B10: D domain SEQ ID NO: 773 (designed binder)
chain: MGSWIEFEDRLEAIEDRLFALGGSEAELAAFEKEIAAFESELQAYKGKGNPEVEWLRQEAAEIRLMLQAYRHN
B11: D domain SEQ ID NO: 753 (designed binder)
chain: MGSWYEFWDRLEAIEERLWALGGSEAELAAFEKEIAAFESELQAYKGKGNPEVEYLRLEAADIRRILQAYRHN
B12: D domain SEQ ID NO: 757 (designed binder)
chain: MGSWYEFENRLGAIGDRLWALGGSEAELAAFEKEIAAFESELQAYKGKGNPEVEWLRDEAAYIRAVLQAYRHN
B13: D domain SEQ ID NO: 765 (designed binder)
chain: MGSWIEFWDRLEAIEDRLWALGGSEAELAAFEKEIAAFESELQAYKGKGNPEVEELRDEAAWIRDSLQAYRHN
B14: D domain SEQ ID NO: 747 (designed binder)
chain: MGSWVEFESRLAAIEHRLWALGGSEAELAAFEKEIAAFESELQAYKGKGNPEVEELREYAAEIRDWLQAYRHN
B15: D domain SEQ ID NO: 767 (designed binder)
chain: MGSWEEFTDRLWAIEDRLYALGGSEAELAAFEKEIAAFESELQAYKGKGNPEVEWLRDEAAFIRKSLQAYRHN
B16: D domain SEQ ID NO: 766 (designed binder)
chain: MGSWFEFWDRLDAIEDRLYALGGSEAELAAFEKEIAAFESELQAYKGKGNPEVEELRDEAAWIRGTLQAYRHN
B17: D domain SEQ ID NO: 755 (designed binder)
chain: MGSWYEFENRLEAIEERLWALGGSEAELAAFEKEIAAFESELQAYKGKGNPEVEMLREEAAFIRDWLQAYRHN
B18: D domain SEQ ID NO: 762 (designed binder)
chain: MGSWFEFEWRLEAIFDRLYALGGSEAELAAFEKEIAAFESELQAYKGKGNPEVEVLRAEAAEIRLRLQAYRHN
B19: D domain SEQ ID NO: 758 (designed binder)
chain: MGSWYEFEHRLDAIYDRLWALGGSEAELAAFEKEIAAFESELQAYKGKGNPEVEWLREEAAWIRLWLQAYRHN
B20: D domain SEQ ID NO: 768 (designed binder)
chain: MGSWVEFVDRLEAIEDRLFALGGSEAELAAFEKEIAAFESELQAYKGKGNPEVEFLRDQAAYIRFMLQAYRHN
B21: D domain SEQ ID NO: 756 (designed binder)
chain: MGSWYEFEYRLEAIEDRLWALGGSEAELAAFEKEIAAFESELQAYKGKGNPEVEYLREEAAWIRVWLQAYRHN
B22: D domain SEQ ID NO: 759 (designed binder)
chain: MGSWYEFEWRLDAIYDRLGALGGSEAELAAFEKEIAAFESELQAYKGKGNPEVEWLREDAAEIRALLQAYRHN
B23: D domain SEQ ID NO: 772 (designed binder)
chain: MGSWYEFYQRLEAIEDRLFALGGSEAELAAFEKEIAAFESELQAYKGKGNPEVEWLRDEAAEIRVVLQAYRHN
B24: D domain SEQ ID NO: 770 (designed binder)
chain: MGSWWEFEMRLEAIEDRLFALGGSEAELAAFEKEIAAFESELQAYKGKGNPEVESLRWEAAFIRDILQAYRHN
B25: D domain SEQ ID NO: 746 (designed binder)
chain: MGSWYEFWDRLEAIEDRLWALGGSEAELAAFEKEIAAFESELQAYKGKGNPEVEFLRYSAAEIRYQLQAYRHN
B26: D domain SEQ ID NO: 750 (designed binder)
chain: MGSWYEFEWRLMAIEDRLWALGGSEAELAAFEKEIAAFESELQAYKGKGNPEVEYLRHEAAEIRDVLQAYRHN
B27: D domain SEQ ID NO: 749 (designed binder)
chain: MGSWYEFDSRLMAIEDRLWALGGSEAELAAFEKEIAAFESELQAYKGKGNPEVEYLRQEAAEIRMILQAYRHN
B28: D domain SEQ ID NO: 751 (designed binder)
chain: MGSWYEFYNRLDAIEDRLWALGGSEAELAAFEKEIAAFESELQAYKGKGNPEVEYLRQEAADIRGQLQAYRHN
B29: D domain SEQ ID NO: 754 (designed binder)
chain: MGSWYEFEERLWAIEERLYALGGSEAELAAFEKEIAAFESELQAYKGKGNPEVEYLRYEAAWIRDFLQAYRHN
B30: D domain SEQ ID NO: 771 (designed binder)
chain: MGSWFEFEIRLEAIEDRLFALGGSEAELAAFEKEIAAFESELQAYKGKGNPEVEFLRDEAAEIRQVLQAYRHN
B31: D domain SEQ ID NO: 760 (designed binder)
chain: MGSWVEFENRLEAIENRLWALGGSEAELAAFEKEIAAFESELQAYKGKGNPEVEWLREDAAQIRMMLQAYRHN
B32: D domain SEQ ID NO: 724 (designed binder)
chain: MGSWYEFEDRLDAIQWRLWALGGSEAELAAFEKEIAAFESELQAYKGKGNPEVEFLRESAANIRQHLQAYRHN
B33: D domain SEQ ID NO: 725 (designed binder)
chain: MGSWSEFEYRLFAIENRLDALGGSEAELAAFEKEIAAFESELQAYKGKGNPEVEFLREEAAMIRQLLQAYRHN
B34: D domain SEQ ID NO: 733 (designed binder)
chain: MGSWNEFYDRLSAIYFRLQALGGSEAELAAFEKEIAAFESELQAYKGKGNPEVEHLRWYAADIRMILQAYRHN
B35: D domain SEQ ID NO: 734 (designed binder)
chain: MGSWNEFYDRLSAIYFRLQALGGFEAELAAFEKEIAAFESELQAYKGKGNPEVEHLRWYAADIRMILQAYRHN
B36: D domain SEQ ID NO: 737 (designed binder)
chain: MGSWKEFDNRLYAIEDRLRALGGSEAELAAFEKEIAAFESELQAYKGKGNPEVEHLRWYAADIRMILQAYRHN
B37: D domain SEQ ID NO: 736 (designed binder)
chain: MGSWVEFYDRLHAIYFRLLALGGSEAELAAFEKEIAAFESELQAYKGKGNPEVEDLRWYAADIRLVLQAYRHN
B38: D domain SEQ ID NO: 732 (designed binder)
chain: MGSWYEFYDRLSAIYARLQALGGSEAELAAFEKEIAAFESELQAYKGKGNPEVEDLRWYAADIRYMLQAYRHN
B39: D domain SEQ ID NO: 735 (designed binder)
chain: MGSWEEFYDRLGAIFARLHALGGSEAELAAFEKEIAAFESELQAYKGKGNPEVEDLRWYAADIRMILQAYRHN
B40: D domain SEQ ID NO: 731 (designed binder)
chain: MGSWYEFYNRLSAIYARLQALGGSEAELAAFEKEIAAFESELQAYKGKGNPEVEDLRWYAADIRYMLQAYRHN

The target in this assay is T1, CD123 (Homo sapiens (Human), UniProt P26951 19-305, limits assumed).
T1 construct: also called CD123-Signal
T1 sequence: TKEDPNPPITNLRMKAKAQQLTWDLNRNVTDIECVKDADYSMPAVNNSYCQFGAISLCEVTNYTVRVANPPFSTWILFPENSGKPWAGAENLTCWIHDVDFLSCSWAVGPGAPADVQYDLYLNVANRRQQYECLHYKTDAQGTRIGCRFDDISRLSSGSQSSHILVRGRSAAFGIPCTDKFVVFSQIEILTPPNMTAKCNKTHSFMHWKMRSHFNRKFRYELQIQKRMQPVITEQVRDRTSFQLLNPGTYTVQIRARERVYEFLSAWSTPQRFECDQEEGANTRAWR
Description: ELISA, format not described. The arrangement: unit not given here.
The molecule B1 yielded an ELISA_avg of 3.5.

Consider B2, for which the ELISA_avg amounted to 7.1.

For the molecule B3, the ELISA_avg stood at 15.

For B4, the ELISA_avg stood at 4.1.

B5 yielded an ELISA_avg of 15.3.

In turn, B6 had an ELISA_avg of 4.7.

B7 showed an ELISA_avg of 7.6.

As to B8, the ELISA_avg was determined as 6.4.

Turning to B9, the ELISA_avg came out at 6.

The molecule B10 gave an ELISA_avg of 21.8.

Molecule B11 registered an ELISA_avg of 4.6.

For B12, the ELISA_avg stood at 4.8.

B13 returned an ELISA_avg of 4.5.

Consider B14, for which the ELISA_avg worked out at 3.7.

Regarding B15, the ELISA_avg was 8.9.

B16 showed an ELISA_avg of 4.9.

The molecule B17 showed an ELISA_avg of 6.1.

B18 showed an ELISA_avg of 6.9.

As to B19, the ELISA_avg came out at 6.3.

Regarding B20, the ELISA_avg was found to be 4.9.

For B21, the ELISA_avg was 6.2.

Regarding B22, the ELISA_avg came to 6.

The molecule B23 returned an ELISA_avg of 3.

In the case of B24, the ELISA_avg is 4.

For the molecule B25, the ELISA_avg amounted to 4.2.

In the case of B26, the ELISA_avg stood at 3.4.

On to B27, for which the ELISA_avg came out at 3.2.

B28 returned an ELISA_avg of 11.3.

With B29, the ELISA_avg is 5.4.

With B30, the ELISA_avg is 3.

As to B31, the ELISA_avg was 6.2.

B32 had an ELISA_avg of 6.3.

As for B33, the ELISA_avg stood at 3.2.

In turn, B34 yielded an ELISA_avg of 10.6.

The molecule B35 came in with an ELISA_avg of 9.

For the molecule B36, the ELISA_avg is 3.9.

For B37, the ELISA_avg is 4.8.

Molecule B38 gave an ELISA_avg of 5.3.

As to B39, the ELISA_avg turned out to be 3.9.

As for B40, the ELISA_avg stood at 10.6.
